This test deals with T1, recombinant extracellular domain of IFNAR1 (ECD-IFNAR1) (UniProt P17181 28-436, RED-tris-NTA 2nd Generation dye on the His-tag (MST only)).
T1 construct: signal peptide in the construct; extracellular domain of IFNAR1, residues 1-436 as printed; the secreted product lacks the signal peptide; source: bought: Sino Biological (13222-H08H)
T1 sequence: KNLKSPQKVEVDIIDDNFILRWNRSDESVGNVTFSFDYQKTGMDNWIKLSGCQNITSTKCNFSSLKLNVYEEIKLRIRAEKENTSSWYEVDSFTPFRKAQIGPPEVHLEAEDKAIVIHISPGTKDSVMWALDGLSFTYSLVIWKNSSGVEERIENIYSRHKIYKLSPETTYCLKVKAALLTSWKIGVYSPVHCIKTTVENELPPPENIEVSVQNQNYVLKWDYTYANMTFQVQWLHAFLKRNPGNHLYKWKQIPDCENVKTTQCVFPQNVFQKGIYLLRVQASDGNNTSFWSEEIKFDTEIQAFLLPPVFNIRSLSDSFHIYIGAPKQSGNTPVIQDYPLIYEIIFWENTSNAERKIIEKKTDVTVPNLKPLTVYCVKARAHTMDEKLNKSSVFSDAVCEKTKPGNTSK
In words: MST; His-tagged ECD-IFNAR1 labelled with RED-tris-NTA 2nd Generation dye for 30 min, mixed with serially diluted LRPAP1 peptides; Monolith NT.115 capillaries; S/N above 5.0 taken as valid binding. The conditions noted are these: both partners purified.

B1: RAPD1P1, peptide from the N-terminal of LRPAP1 (residues 35-53) (peptide)
peptide: YSREKNQPKPSPKRESGEE
notes: LRPAP1 residues 35-53; also called PAPD1P1; source: synthetic peptide (GenScript Biotech, purity 95%)
For B1, the Kd stood at 11.3 nM.

The record behind these values is PMC10518340 (Signal Transduction and Targeted Therapy, 2023).
